This assay concerns the target BG505 SOSIP.664 Env trimer (HIV-1 (isolate BG505)). Briefly: cryo-EM structure.

As for 4-domain CD4 (receptor), the stoichiometry N (molecules per Env) turned out to be 3.

(Values after PMC12085566.)
